Results from the Human Domainome abundance scans (Beltran et al. 2025).
± gives the uncertainty stated by the source.

Assay: abundance fitness (aPCA) (normalised: wild type 0, dead -1); higher = more abundant; growth selection in yeast, the domain comes from the species named
Conditions: Homo sapiens

Substance	abundance fitness
DnaJ homolog subfamily B member 1 Y31H, P25685	-0.494 ± 0.21
DnaJ homolog subfamily B member 1 Y31I, P25685	-0.259 ± 0.052
DnaJ homolog subfamily B member 1 Y31L, P25685	-0.16 ± 0.063
DnaJ homolog subfamily B member 1 Y31M, P25685	-0.164 ± 0.092
DnaJ homolog subfamily B member 1 Y31N, P25685	-0.287 ± 0.14
DnaJ homolog subfamily B member 1 Y31P, P25685	-0.537 ± 0.095
DnaJ homolog subfamily B member 1 Y31Q, P25685	-0.181 ± 0.12
DnaJ homolog subfamily B member 1 Y31R, P25685	-0.401 ± 0.086
DnaJ homolog subfamily B member 1 Y31T, P25685	-0.369 ± 0.12
DnaJ homolog subfamily B member 1 Y31V, P25685	-0.234 ± 0.12
DnaJ homolog subfamily B member 1 Y31W, P25685	-0.188 ± 0.1
DnaJ homolog subfamily B member 1 Y52A, P25685	-0.265 ± 0.083
DnaJ homolog subfamily B member 1 Y52C, P25685	-0.404 ± 0.21
DnaJ homolog subfamily B member 1 Y52D, P25685	-0.3 ± 0.17
DnaJ homolog subfamily B member 1 Y52E, P25685	-0.441 ± 0.069
DnaJ homolog subfamily B member 1 Y52F, P25685	0.076 ± 0.091
DnaJ homolog subfamily B member 1 Y52G, P25685	-0.194 ± 0.077
DnaJ homolog subfamily B member 1 Y52H, P25685	-0.03 ± 0.3
DnaJ homolog subfamily B member 1 Y52K, P25685	-0.337 ± 0.13
DnaJ homolog subfamily B member 1 Y52L, P25685	-0.39 ± 0.071
DnaJ homolog subfamily B member 1 Y52M, P25685	-0.049 ± 0.091
DnaJ homolog subfamily B member 1 Y52N, P25685	-0.195 ± 0.14
DnaJ homolog subfamily B member 1 Y52P, P25685	-0.466 ± 0.1
DnaJ homolog subfamily B member 1 Y52Q, P25685	-0.306 ± 0.11
DnaJ homolog subfamily B member 1 Y52R, P25685	-0.305 ± 0.071
DnaJ homolog subfamily B member 1 Y52S, P25685	-0.332 ± 0.058
DnaJ homolog subfamily B member 1 Y52T, P25685	-0.333 ± 0.089
DnaJ homolog subfamily B member 1 Y52V, P25685	-0.249 ± 0.089
DnaJ homolog subfamily B member 1 Y52W, P25685	0.005 ± 0.074
